Assay results taken from the supplement of paper PMC10126150.
± gives the standard deviation of the averaged measurements.

System: ATP
Test: switch fluorescence ratio, 500 uM ATP over buffer (Cy3 cluster intensity, sum of 5 cycles each) (fold (ratio)); higher = stronger signal-on switching upon ATP binding; sequences stand for … in TCGTCGGCAGCGTCAGATGTGTATAAGAGACAGTTTTTTTTTTTTTTTTTTTTTTTTT…TC
Conditions: aptamer strand: ATP DNA aptamer (quencher-CACCTGGGGGAGTATTGCGGAGGAAGG + anchor), 100 nM annealed; ATP concentration: 500 uM
Method in brief: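 The quencher-labelled ATP aptamer, at 100 nM, was annealed to Cy3-labelled switching-strand clusters on a modified Illumina MiSeq flow-cell. The clusters were imaged in selection buffer, then after 15 min with 500 uM ATP at 22 °C, and this buffer/ATP cycle ran five times with NaOH stripping and re-annealing between runs. Per-cluster fluorescence ratios, summed target-cycle over summed buffer-cycle Cy3 intensity, were averaged per switch-domain sequence. Clusters outside 100-1000 RFU were excluded.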
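Note: ATP exposure 15 min at 22 °C before imaging.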

TAAGATGGTG
switch fluorescence ratio: 0.981 ± 0.011

TAAGATGTAT
switch fluorescence ratio: 0.968 ± 0.031

TAAGCCTTG
switch fluorescence ratio: 0.996 ± 0.006

TAAGCTGGCG
switch fluorescence ratio: 1.06 ± 0.14

TAAGCTGTTA
switch fluorescence ratio: 0.981 ± 0.038

TAAGCTTAGT
switch fluorescence ratio: 1.001 ± 0.0065

TAAGGACGAG
switch fluorescence ratio: 1.02 ± 0.013

TAAGGAGGAT
switch fluorescence ratio: 1 ± 0.017

TAAGGAGTGG
switch fluorescence ratio: 1.03 ± 0.073

TAAGGATGGT
switch fluorescence ratio: 0.997 ± 0.01

TAAGGCACGC
switch fluorescence ratio: 1.01 ± 0.027

TAAGGCTACA
switch fluorescence ratio: 1.01 ± 0.016

TAAGGCTGAC
switch fluorescence ratio: 1.15 ± 0.023

TAAGGCTGTG
switch fluorescence ratio: 1 ± 0.017

TAAGGGAGGG
switch fluorescence ratio: 1.05 ± 0.029

TAAGGGCGGC
switch fluorescence ratio: 0.995 ± 0.043

TAAGGGCTGC
switch fluorescence ratio: 1.036 ± 0.0084

TAAGGGGAGT
switch fluorescence ratio: 1.01 ± 0.038

TAAGGGGCCA
switch fluorescence ratio: 1.024 ± 0.0088

TAAGGGGCGT
switch fluorescence ratio: 1.03 ± 0.035

TAAGGGGGCG
switch fluorescence ratio: 1 ± 0.023

TAAGGGGGGA
switch fluorescence ratio: 1.03 ± 0.08

TAAGGGGGGG
switch fluorescence ratio: 1 ± 0.029

TAAGGGGTAC
switch fluorescence ratio: 1 ± 0.013

TAAGGTACGA
switch fluorescence ratio: 1.052 ± 0.0032

TAAGGTACTG
switch fluorescence ratio: 0.984 ± 0.086

TAAGGTCGGC
switch fluorescence ratio: 0.986 ± 0.028

TAAGGTTCTC
switch fluorescence ratio: 0.96 ± 0.015

TAAGGTTGGT
switch fluorescence ratio: 0.987 ± 0.028

TAAGTAAGGG
switch fluorescence ratio: 1 ± 0.025

TAAGTAATTC
switch fluorescence ratio: 1.08 ± 0.064

TAAGTAGAG
switch fluorescence ratio: 0.9824 ± 0.0097

TAAGTAGGGG
switch fluorescence ratio: 0.981 ± 0.023

TAAGTAGGGT
switch fluorescence ratio: 1.01 ± 0.023

TAAGTATGCC
switch fluorescence ratio: 0.963 ± 0.06

TAAGTATGGT
switch fluorescence ratio: 1.03 ± 0.046

TAAGTCAGCT
switch fluorescence ratio: 1 ± 0.032

TAAGTCCCGG
switch fluorescence ratio: 0.984 ± 0.05

TAAGTCGGGA
switch fluorescence ratio: 0.952 ± 0.025

TAAGTGAAAG
switch fluorescence ratio: 0.986 ± 0.022

TAAGTGACAA
switch fluorescence ratio: 1.05 ± 0.019

TAAGTGACAG
switch fluorescence ratio: 1.01 ± 0.063

TAAGTGCAT
switch fluorescence ratio: 1.0026 ± 4.4e-05

TAAGTGGTA
switch fluorescence ratio: 0.993 ± 0.042

TAAGTGGTTT
switch fluorescence ratio: 1 ± 0.019

TAAGTGTAAA
switch fluorescence ratio: 0.986 ± 0.013

TAAGTTAGTG
switch fluorescence ratio: 1 ± 0.016

TAAGTTGACT
switch fluorescence ratio: 1.06 ± 0.078

TAAGTTGGGA
switch fluorescence ratio: 0.98 ± 0.031

TAAGTTTTCC
switch fluorescence ratio: 1.03 ± 0.032

TAATAAGCGG
switch fluorescence ratio: 0.976 ± 0.035

TAATAAGGGG
switch fluorescence ratio: 1.02 ± 0.028

TAATAAGTA
switch fluorescence ratio: 0.97 ± 0.012

TAATAATGAG
switch fluorescence ratio: 0.981 ± 0.011

TAATAATTGG
switch fluorescence ratio: 1.04 ± 0.057

TAATACGGCG
switch fluorescence ratio: 1.009 ± 0.01

TAATAGATCC
switch fluorescence ratio: 1.01 ± 0.067

TAATAGTGTT
switch fluorescence ratio: 1.024 ± 0.0092

TAATAGTTCT
switch fluorescence ratio: 1.01 ± 0.026

TAATATAGTT
switch fluorescence ratio: 1.01 ± 0.027

TAATATGGGC
switch fluorescence ratio: 1.02 ± 0.034

TAATATTAAC
switch fluorescence ratio: 1.02 ± 0.03

TAATATTTTA
switch fluorescence ratio: 0.987 ± 0.014

TAATATTTTT
switch fluorescence ratio: 1 ± 0.017

TAATCAATGT
switch fluorescence ratio: 0.994 ± 0.011

TAATCACGTC
switch fluorescence ratio: 1.04 ± 0.048

TAATCCGCGG
switch fluorescence ratio: 1.14 ± 0.041

TAATCGACTT
switch fluorescence ratio: 1.02 ± 0.014

TAATCGGGTT
switch fluorescence ratio: 0.996 ± 0.017

TAATCGTGGA
switch fluorescence ratio: 1.03 ± 0.022

TAATCGTGTG
switch fluorescence ratio: 0.985 ± 0.067

TAATCGTTTG
switch fluorescence ratio: 0.962 ± 0.01

TAATGACCAA
switch fluorescence ratio: 1.019 ± 0.0071

TAATGACTTG
switch fluorescence ratio: 0.953 ± 0.031

TAATGAGCTA
switch fluorescence ratio: 0.987 ± 0.042

TAATGAGTCA
switch fluorescence ratio: 1 ± 0.081

TAATGAGTTA
switch fluorescence ratio: 0.9658 ± 0.0012

TAATGCATTT
switch fluorescence ratio: 1.01 ± 0.017

TAATGCGTTT
switch fluorescence ratio: 0.98 ± 0.0039

TAATGCTTAT
switch fluorescence ratio: 1.06 ± 0.12

TAATGCTTTT
switch fluorescence ratio: 0.978 ± 0.03

TAATGGAAAA
switch fluorescence ratio: 1.15 ± 0.28

TAATGGAGTT
switch fluorescence ratio: 1 ± 0.029

TAATGGGGCC
switch fluorescence ratio: 1.057 ± 0.005

TAATGGGGGT
switch fluorescence ratio: 0.994 ± 0.025
